± gives the standard deviation of the averaged measurements.
System: ATP
Test: switch fluorescence ratio, 500 uM ATP over buffer (Cy3 cluster intensity, sum of 5 cycles each) (fold (ratio)); higher = stronger signal-on switching upon ATP binding; sequences stand for … in TCGTCGGCAGCGTCAGATGTGTATAAGAGACAGTTTTTTTTTTTTTTTTTTTTTTTTT…TC
Conditions: aptamer strand: ATP DNA aptamer (quencher-CACCTGGGGGAGTATTGCGGAGGAAGG + anchor), 100 nM annealed; ATP concentration: 500 uM
Summary of the method: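 Imaging in selection buffer was followed by imaging after 15 min with 500 uM ATP at 22 °C, for Cy3-labelled switching-strand clusters annealed to 100 nM quencher-labelled ATP aptamer on a modified Illumina MiSeq flow-cell. Five of these buffer/ATP cycles ran, separated by NaOH stripping and re-annealing. The fluorescence ratio per cluster is summed target-cycle over summed buffer-cycle Cy3 intensity, averaged per switch-domain sequence; clusters outside 100-1000 RFU were removed.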
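Note: ATP exposure 15 min at 22 °C before imaging.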

With TTCTGTCCAC the switch fluorescence ratio was 1.03 ± 0.013.

ACTAAAAATT showed a switch fluorescence ratio of 1.05 ± 0.04.

With GGCCGTCGGA the switch fluorescence ratio was 1.06 ± 0.091.

In the case of CCTCATTCGG, the switch fluorescence ratio is reported as 1.06 ± 0.021.

ACCGGGTGCA showed a switch fluorescence ratio of 1.36 ± 0.48.

GCATGCGGTC gave a switch fluorescence ratio of 1.01 ± 0.027.

Sequence TGGCTCGGGG has a switch fluorescence ratio of 1.03 ± 0.051.

In the case of TCGCTTATCG, the switch fluorescence ratio is reported as 1.02 ± 0.072.

TATTTATCTT showed a switch fluorescence ratio of 0.989 ± 0.021.

Work on GGGGAGCAGC yielded a switch fluorescence ratio of 1.11 ± 0.22.

AGGGTTGTAT showed a switch fluorescence ratio of 1.001 ± 0.0037.

Work on CAACGTAGGT yielded a switch fluorescence ratio of 1.05 ± 0.013.

GAAAAAGACT gave a switch fluorescence ratio of 1.04 ± 0.089.

In the case of AGGACTGGGG, the switch fluorescence ratio is reported as 1.01 ± 0.037.

In the case of GAGTGAGTAT, the switch fluorescence ratio is reported as 0.9731 ± 0.0071.

Sequence TAAGGGGACG has a switch fluorescence ratio of 1.02 ± 0.023.

Sequence TATGTTAAAG has a switch fluorescence ratio of 0.996 ± 0.017.

CATGAGAGGT showed a switch fluorescence ratio of 1 ± 0.018.

Sequence GATTGATGGG has a switch fluorescence ratio of 0.995 ± 0.024.

In the case of TAGTTTCGGG, the switch fluorescence ratio is reported as 0.997 ± 0.05.

ACTATTTGCG gave a switch fluorescence ratio of 0.991 ± 0.042.

With ATGCGGAGTG the switch fluorescence ratio was 0.987 ± 0.02.

Sequence AAGTGAGTGC has a switch fluorescence ratio of 1 ± 0.059.

Work on ATTTGGTCGT yielded a switch fluorescence ratio of 0.979 ± 0.048.

Sequence CGGGGCAGGT has a switch fluorescence ratio of 1.01 ± 0.021.

Work on TTTTGGATAT yielded a switch fluorescence ratio of 1.28 ± 0.42.

With GGTGCTGGGG the switch fluorescence ratio was 1.01 ± 0.019.

GGATGGTTTT showed a switch fluorescence ratio of 1.02 ± 0.018.

AATTTGTTAG gave a switch fluorescence ratio of 0.985 ± 0.018.

GTTATACGGT showed a switch fluorescence ratio of 0.997 ± 0.057.

In the case of CTAGCGAGGG, the switch fluorescence ratio is reported as 1.01 ± 0.014.

For TACATGGGCA, the switch fluorescence ratio was 1.01 ± 0.044.

Work on AATGGCATTA yielded a switch fluorescence ratio of 0.984 ± 0.03.

With TATAGGGGTT the switch fluorescence ratio was 1.02 ± 0.061.

Work on TGTTTTATCA yielded a switch fluorescence ratio of 0.9742 ± 0.0037.

Sequence TATTGGGCAT has a switch fluorescence ratio of 0.985 ± 0.018.

Work on TCGGAAAAAT yielded a switch fluorescence ratio of 0.966 ± 0.0099.

TGTTTGTAGG showed a switch fluorescence ratio of 0.97 ± 0.043.

Work on AGGAATTACG yielded a switch fluorescence ratio of 1.05 ± 0.041.

In the case of CTTTCCCCGT, the switch fluorescence ratio is reported as 1.396 ± 0.0017.

In the case of TTCAGGGTTC, the switch fluorescence ratio is reported as 0.966 ± 0.027.

With GATGTTTCAT the switch fluorescence ratio was 0.979 ± 0.018.

TTCATAGGGG gave a switch fluorescence ratio of 0.988 ± 0.015.

Sequence AAGGGAATTT has a switch fluorescence ratio of 1.17 ± 0.36.

CGGTGCGACG gave a switch fluorescence ratio of 0.958 ± 0.041.

TATAATCGGG was tested, and the switch fluorescence ratio was 0.989 ± 0.015.

For TTCGAGTTTT, the switch fluorescence ratio was 0.9669 ± 0.00099.

GAACCGATGT was tested, and the switch fluorescence ratio was 1.009 ± 0.0089.

In the case of GTAGGGGCGG, the switch fluorescence ratio is reported as 1.0124 ± 0.00012.

AGATGGGAAT showed a switch fluorescence ratio of 1.04 ± 0.0028.

For GCACTGAAGG, the switch fluorescence ratio was 1.0196 ± 0.00041.

Sequence ACGATCAGGA has a switch fluorescence ratio of 1.026 ± 0.0029.

TCTGTAGGTT was tested, and the switch fluorescence ratio was 1.03 ± 0.024.

In the case of GTGGTTGTTT, the switch fluorescence ratio is reported as 1.01 ± 0.049.

AGCTGTGACC showed a switch fluorescence ratio of 1 ± 0.012.

AGGGTTAAGT was tested, and the switch fluorescence ratio was 1.002 ± 0.0061.

TACGGTTTAG gave a switch fluorescence ratio of 1 ± 0.048.

With TAGGTTTGAA the switch fluorescence ratio was 0.9922 ± 0.0018.

In the case of GCTTACAGGC, the switch fluorescence ratio is reported as 1.04 ± 0.048.

Sequence GGGTTCCTGG has a switch fluorescence ratio of 0.995 ± 0.028.

ATGTTTTGGG gave a switch fluorescence ratio of 1.01 ± 0.024.

Work on ATGATGTAAT yielded a switch fluorescence ratio of 0.995 ± 0.051.

For ACGTTGGATT, the switch fluorescence ratio was 1.01 ± 0.014.

TGGGACCAGG gave a switch fluorescence ratio of 1.05 ± 0.03.

AAGGCATCAG showed a switch fluorescence ratio of 0.9915 ± 0.0045.

With AAAGGGGAAC the switch fluorescence ratio was 1.03 ± 0.028.

With AGCGGGGGGT the switch fluorescence ratio was 1.03 ± 0.033.

In the case of TGATAGGGGT, the switch fluorescence ratio is reported as 1.02 ± 0.05.

With GTGGGGATGG the switch fluorescence ratio was 0.966 ± 0.024.

With GTTTGGGAAA the switch fluorescence ratio was 0.988 ± 0.036.

With TGTGGTATTT the switch fluorescence ratio was 0.972 ± 0.027.

TGGGGGAACG gave a switch fluorescence ratio of 0.984 ± 0.026.

ACTTAGTCCA showed a switch fluorescence ratio of 1.03 ± 0.034.

TGTGTTATTT showed a switch fluorescence ratio of 0.999 ± 0.024.

CTATTAATGT gave a switch fluorescence ratio of 0.989 ± 0.028.

CAATGGAGAG showed a switch fluorescence ratio of 1 ± 0.018.

For TTTGGATCTG, the switch fluorescence ratio was 1.034 ± 0.0094.

For TAAGGCAATT, the switch fluorescence ratio was 1.06 ± 0.041.

GGCTTCTTGA was tested, and the switch fluorescence ratio was 0.966 ± 0.017.

AGAACGTCTG showed a switch fluorescence ratio of 0.9969 ± 0.0022.

With CGGTATGTG the switch fluorescence ratio was 1.01 ± 0.036.

For GAAGGGTTTG, the switch fluorescence ratio was 0.9968 ± 0.0053.

TGGGAAAGCA showed a switch fluorescence ratio of 1 ± 0.012.

CATTCTGACC was tested, and the switch fluorescence ratio was 1.08 ± 0.036.

For ACTTAGAAAT, the switch fluorescence ratio was 1.046 ± 0.01.

For GGGACGGGGT, the switch fluorescence ratio was 0.963 ± 0.063.

GCGGCGGGGG was tested, and the switch fluorescence ratio was 0.99 ± 0.031.

ATTAGGGTTT gave a switch fluorescence ratio of 1.04 ± 0.061.

Work on CCGCCCGGAT yielded a switch fluorescence ratio of 1.14 ± 0.018.

CCATTGTGTG gave a switch fluorescence ratio of 0.98955 ± 0.00067.

TAGGGAGGA showed a switch fluorescence ratio of 0.98 ± 0.022.

Sequence TTTGAAATAT has a switch fluorescence ratio of 1.01 ± 0.013.

AAATTGCTTA was tested, and the switch fluorescence ratio was 1 ± 0.024.

For GCAGAATTTG, the switch fluorescence ratio was 1.02 ± 0.031.

With TGCGACAGGG the switch fluorescence ratio was 0.988 ± 0.013.

CCTGGCCTGC gave a switch fluorescence ratio of 1.078 ± 0.01.

Work on GATGTTTTTC yielded a switch fluorescence ratio of 0.97003 ± 0.00087.

Sequence ATTTAATGGG has a switch fluorescence ratio of 0.99 ± 0.035.

Work on TGTGGGGACC yielded a switch fluorescence ratio of 1.05 ± 0.05.

Work on GCAGGGGGGA yielded a switch fluorescence ratio of 1.04 ± 0.05.

TCGAGATTAA was tested, and the switch fluorescence ratio was 1.01 ± 0.024.

TTGCGTTGGC gave a switch fluorescence ratio of 0.984 ± 0.043.

Sequence TTATTTTCGA has a switch fluorescence ratio of 0.999 ± 0.021.

Work on AGGTTATACG yielded a switch fluorescence ratio of 1.01 ± 0.022.

In the case of CAGCGTAGGT, the switch fluorescence ratio is reported as 1.02 ± 0.043.

With AGTGTGGTTA the switch fluorescence ratio was 1.005 ± 0.01.

AGAGGGGTTC gave a switch fluorescence ratio of 1.01 ± 0.029.

Sequence TGAGAGAGTG has a switch fluorescence ratio of 1.02 ± 0.059.

With AGCTAGCGAT the switch fluorescence ratio was 1.02 ± 0.034.

Sequence CTTTCCGTGC has a switch fluorescence ratio of 1.32 ± 0.035.

For GATAAAAATA, the switch fluorescence ratio was 0.998 ± 0.018.

TGTTGTTTCG showed a switch fluorescence ratio of 0.989 ± 0.025.

With GGCTGGGCTT the switch fluorescence ratio was 0.99 ± 0.04.

With GGGTAAGAAG the switch fluorescence ratio was 0.971 ± 0.013.

Work on GGTGACACAG yielded a switch fluorescence ratio of 0.988 ± 0.017.

Sequence GGGGACAGGG has a switch fluorescence ratio of 1.01 ± 0.051.

In the case of TTGGGGCACG, the switch fluorescence ratio is reported as 0.99 ± 0.02.

TCGAAATAGG gave a switch fluorescence ratio of 1.005 ± 0.0023.

With ATGCAGAATT the switch fluorescence ratio was 0.988 ± 0.017.

GGAGGAAGG was tested, and the switch fluorescence ratio was 1.02 ± 0.019.

For AGTGTACTCG, the switch fluorescence ratio was 1.04 ± 0.056.

CGGTGGTGAT showed a switch fluorescence ratio of 1.009 ± 0.0059.

Sequence GTTATTGGGT has a switch fluorescence ratio of 0.988 ± 0.046.

In the case of CATATTTTTA, the switch fluorescence ratio is reported as 1.04 ± 0.05.

With CGTTTGAGTG the switch fluorescence ratio was 1.02 ± 0.023.

With GCTGGTATAT the switch fluorescence ratio was 1.01 ± 0.016.

TTTCCGGTGC was tested, and the switch fluorescence ratio was 1.7 ± 0.13.

For GCCGTAGTCG, the switch fluorescence ratio was 1.03 ± 0.042.

Sequence ATGTTCAGTT has a switch fluorescence ratio of 0.974 ± 0.012.

In the case of TTTGTGTATT, the switch fluorescence ratio is reported as 0.97768 ± 0.00065.

GTGACGGGGG showed a switch fluorescence ratio of 1.02 ± 0.029.

TATGTCAAGC showed a switch fluorescence ratio of 0.96 ± 0.038.

TGTAGTAGCG showed a switch fluorescence ratio of 0.9901 ± 0.0064.

In the case of AGTTCTGTCG, the switch fluorescence ratio is reported as 1.01 ± 0.09.

With ATAAACGTTA the switch fluorescence ratio was 1.1 ± 0.018.

In the case of TTTTGGGGTT, the switch fluorescence ratio is reported as 0.997 ± 0.043.

In the case of ACGGTTTATG, the switch fluorescence ratio is reported as 1.01 ± 0.058.

For AATACATCGG, the switch fluorescence ratio was 0.999 ± 0.022.

For AATAAGTGTT, the switch fluorescence ratio was 0.9792 ± 0.008.

For GGTTTAATGT, the switch fluorescence ratio was 0.9927 ± 0.0098.

Sequence GGAAATAAGG has a switch fluorescence ratio of 1.01 ± 0.033.

CTTACTATTG gave a switch fluorescence ratio of 1.03 ± 0.05.

With AGATACGGTG the switch fluorescence ratio was 0.983 ± 0.044.

For AACGTTCCTG, the switch fluorescence ratio was 1.35 ± 0.11.

In the case of GCAAAACA, the switch fluorescence ratio is reported as 1.3 ± 0.41.

With GACTGAGGGG the switch fluorescence ratio was 1.02 ± 0.05.

Work on CGATGTATTT yielded a switch fluorescence ratio of 1.01 ± 0.048.

AATACGGGAG gave a switch fluorescence ratio of 0.995 ± 0.017.

With GGAGTCTGG the switch fluorescence ratio was 1.0086 ± 0.0004.

In the case of GGGCCTTTTC, the switch fluorescence ratio is reported as 1 ± 0.056.

GCGGGTTGCC was tested, and the switch fluorescence ratio was 0.9871 ± 0.0013.

In the case of AGTTACCCGA, the switch fluorescence ratio is reported as 1.04 ± 0.011.

For TATAAATTGG, the switch fluorescence ratio was 1 ± 0.032.

CCATTTGCGC showed a switch fluorescence ratio of 1.02 ± 0.034.

TTGGGGGTAG was tested, and the switch fluorescence ratio was 1.04 ± 0.13.

TATTGGGCAG showed a switch fluorescence ratio of 1.01 ± 0.023.

In the case of GTTCTGGGGC, the switch fluorescence ratio is reported as 0.986 ± 0.028.

— the supplement of paper PMC10126150
